Laboratory results from patent publication US20150344570A1 (published 2015).

Molecular target: T1, FcγRIa (human, UniProt P12314 16-292)
T1 construct: extracellular domain; also called FcgRI; 1a
Test: SPR (Biacore); Ho Ab relative to HoCon Ab = 100
Outline: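 Antigen peptide is immobilized on CM5 by amine coupling or, biotinylated, on SA chips; test antibody is captured on it; each FcγR, diluted in HBS-EP+, flows over at 25° C; captured antibody is stripped with 10 mM glycine-HCl, pH 1.5.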

T1 sequence (P12314 16-292): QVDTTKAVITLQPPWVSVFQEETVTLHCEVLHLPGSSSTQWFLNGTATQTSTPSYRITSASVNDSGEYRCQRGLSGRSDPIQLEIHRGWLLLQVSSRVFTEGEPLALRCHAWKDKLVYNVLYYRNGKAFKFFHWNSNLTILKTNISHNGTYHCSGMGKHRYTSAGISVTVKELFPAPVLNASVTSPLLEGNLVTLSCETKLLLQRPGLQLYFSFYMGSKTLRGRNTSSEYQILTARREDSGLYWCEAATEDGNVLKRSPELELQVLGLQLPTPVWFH

Binder | Ho/Con_1a
GpH7-B3 variant L328_10E/GpL16-k0 (antibody, human IgG1, kappa, also called Ho Ab L328_10E) heavy: not shown light: DIVMTQSPLSLPVTPGEPASISCQASESLVHSNRNTYLHWYLQKPGQSPQLLIYKVSNRFSGVPDRFSGSGSGTDFTLKISRVEAEDVGVYYCSQNTHVPPTFGQGTKVEIERTVAAPSVFIFPPSDEQLKSGTASVVCLLNNFYPREAKVQWKVDNALQSGNSQESVTEQDSKDSTYSLSSTLTLSKADYEKHKVYACEVTHQGLSSPVTKSFNRGEC | 101 % of control
GpH7-B3 variant P271_15Y/GpL16-k0 (antibody, human IgG1, kappa, also called Ho Ab P271_15Y) heavy: not shown light: DIVMTQSPLSLPVTPGEPASISCQASESLVHSNRNTYLHWYLQKPGQSPQLLIYKVSNRFSGVPDRFSGSGSGTDFTLKISRVEAEDVGVYYCSQNTHVPPTFGQGTKVEIERTVAAPSVFIFPPSDEQLKSGTASVVCLLNNFYPREAKVQWKVDNALQSGNSQESVTEQDSKDSTYSLSSTLTLSKADYEKHKVYACEVTHQGLSSPVTKSFNRGEC | 99.4 % of control
GpH7-B3 variant Q295_11K/GpL16-k0 (antibody, human IgG1, kappa, also called Ho Ab Q295_11K) heavy: not shown light: DIVMTQSPLSLPVTPGEPASISCQASESLVHSNRNTYLHWYLQKPGQSPQLLIYKVSNRFSGVPDRFSGSGSGTDFTLKISRVEAEDVGVYYCSQNTHVPPTFGQGTKVEIERTVAAPSVFIFPPSDEQLKSGTASVVCLLNNFYPREAKVQWKVDNALQSGNSQESVTEQDSKDSTYSLSSTLTLSKADYEKHKVYACEVTHQGLSSPVTKSFNRGEC | 99.9 % of control
GpH7-B3 variant P271_14T/GpL16-k0 (antibody, human IgG1, kappa, also called Ho Ab P271_14T) heavy: not shown light: DIVMTQSPLSLPVTPGEPASISCQASESLVHSNRNTYLHWYLQKPGQSPQLLIYKVSNRFSGVPDRFSGSGSGTDFTLKISRVEAEDVGVYYCSQNTHVPPTFGQGTKVEIERTVAAPSVFIFPPSDEQLKSGTASVVCLLNNFYPREAKVQWKVDNALQSGNSQESVTEQDSKDSTYSLSSTLTLSKADYEKHKVYACEVTHQGLSSPVTKSFNRGEC | 99.5 % of control
GpH7-B3 variant P271_02A/GpL16-k0 (antibody, human IgG1, kappa, also called Ho Ab P271_02A) heavy: not shown light: DIVMTQSPLSLPVTPGEPASISCQASESLVHSNRNTYLHWYLQKPGQSPQLLIYKVSNRFSGVPDRFSGSGSGTDFTLKISRVEAEDVGVYYCSQNTHVPPTFGQGTKVEIERTVAAPSVFIFPPSDEQLKSGTASVVCLLNNFYPREAKVQWKVDNALQSGNSQESVTEQDSKDSTYSLSSTLTLSKADYEKHKVYACEVTHQGLSSPVTKSFNRGEC | 102 % of control
GpH7-B3 variant L328_19Q/GpL16-k0 (antibody, human IgG1, kappa, also called Ho Ab L328_19Q) heavy: not shown light: DIVMTQSPLSLPVTPGEPASISCQASESLVHSNRNTYLHWYLQKPGQSPQLLIYKVSNRFSGVPDRFSGSGSGTDFTLKISRVEAEDVGVYYCSQNTHVPPTFGQGTKVEIERTVAAPSVFIFPPSDEQLKSGTASVVCLLNNFYPREAKVQWKVDNALQSGNSQESVTEQDSKDSTYSLSSTLTLSKADYEKHKVYACEVTHQGLSSPVTKSFNRGEC | 99.3 % of control
GpH7-B3 variant Q295_16H/GpL16-k0 (antibody, human IgG1, kappa, also called Ho Ab Q295_16H) heavy: not shown light: DIVMTQSPLSLPVTPGEPASISCQASESLVHSNRNTYLHWYLQKPGQSPQLLIYKVSNRFSGVPDRFSGSGSGTDFTLKISRVEAEDVGVYYCSQNTHVPPTFGQGTKVEIERTVAAPSVFIFPPSDEQLKSGTASVVCLLNNFYPREAKVQWKVDNALQSGNSQESVTEQDSKDSTYSLSSTLTLSKADYEKHKVYACEVTHQGLSSPVTKSFNRGEC | 99.1 % of control
GpH7-B3 variant P238_06M/GpL16-k0 (antibody, human IgG1, kappa, also called Ho Ab P238_06M) heavy: not shown light: DIVMTQSPLSLPVTPGEPASISCQASESLVHSNRNTYLHWYLQKPGQSPQLLIYKVSNRFSGVPDRFSGSGSGTDFTLKISRVEAEDVGVYYCSQNTHVPPTFGQGTKVEIERTVAAPSVFIFPPSDEQLKSGTASVVCLLNNFYPREAKVQWKVDNALQSGNSQESVTEQDSKDSTYSLSSTLTLSKADYEKHKVYACEVTHQGLSSPVTKSFNRGEC | 100 % of control
GpH7-B3 variant Q295_09D/GpL16-k0 (antibody, human IgG1, kappa, also called Ho Ab Q295_09D) heavy: not shown light: DIVMTQSPLSLPVTPGEPASISCQASESLVHSNRNTYLHWYLQKPGQSPQLLIYKVSNRFSGVPDRFSGSGSGTDFTLKISRVEAEDVGVYYCSQNTHVPPTFGQGTKVEIERTVAAPSVFIFPPSDEQLKSGTASVVCLLNNFYPREAKVQWKVDNALQSGNSQESVTEQDSKDSTYSLSSTLTLSKADYEKHKVYACEVTHQGLSSPVTKSFNRGEC | 96.8 % of control
GpH7-B3 variant P329_01G/GpL16-k0 (antibody, human IgG1, kappa, also called Ho Ab P329_01G) heavy: not shown light: DIVMTQSPLSLPVTPGEPASISCQASESLVHSNRNTYLHWYLQKPGQSPQLLIYKVSNRFSGVPDRFSGSGSGTDFTLKISRVEAEDVGVYYCSQNTHVPPTFGQGTKVEIERTVAAPSVFIFPPSDEQLKSGTASVVCLLNNFYPREAKVQWKVDNALQSGNSQESVTEQDSKDSTYSLSSTLTLSKADYEKHKVYACEVTHQGLSSPVTKSFNRGEC | 89.5 % of control
GpH7-B3 variant L328_20W/GpL16-k0 (antibody, human IgG1, kappa, also called Ho Ab L328_20W) heavy: not shown light: DIVMTQSPLSLPVTPGEPASISCQASESLVHSNRNTYLHWYLQKPGQSPQLLIYKVSNRFSGVPDRFSGSGSGTDFTLKISRVEAEDVGVYYCSQNTHVPPTFGQGTKVEIERTVAAPSVFIFPPSDEQLKSGTASVVCLLNNFYPREAKVQWKVDNALQSGNSQESVTEQDSKDSTYSLSSTLTLSKADYEKHKVYACEVTHQGLSSPVTKSFNRGEC | 99.9 % of control
GpH7-B3 variant P238_15Y/GpL16-k0 (antibody, human IgG1, kappa, also called Ho Ab P238_15Y) heavy: not shown light: DIVMTQSPLSLPVTPGEPASISCQASESLVHSNRNTYLHWYLQKPGQSPQLLIYKVSNRFSGVPDRFSGSGSGTDFTLKISRVEAEDVGVYYCSQNTHVPPTFGQGTKVEIERTVAAPSVFIFPPSDEQLKSGTASVVCLLNNFYPREAKVQWKVDNALQSGNSQESVTEQDSKDSTYSLSSTLTLSKADYEKHKVYACEVTHQGLSSPVTKSFNRGEC | 99 % of control
GpH7-B3 variant P238_10E/GpL16-k0 (antibody, human IgG1, kappa, also called Ho Ab P238_10E) heavy: not shown light: DIVMTQSPLSLPVTPGEPASISCQASESLVHSNRNTYLHWYLQKPGQSPQLLIYKVSNRFSGVPDRFSGSGSGTDFTLKISRVEAEDVGVYYCSQNTHVPPTFGQGTKVEIERTVAAPSVFIFPPSDEQLKSGTASVVCLLNNFYPREAKVQWKVDNALQSGNSQESVTEQDSKDSTYSLSSTLTLSKADYEKHKVYACEVTHQGLSSPVTKSFNRGEC | 91.8 % of control
GpH7-B3 variant P271_03V/GpL16-k0 (antibody, human IgG1, kappa, also called Ho Ab P271_03V) heavy: not shown light: DIVMTQSPLSLPVTPGEPASISCQASESLVHSNRNTYLHWYLQKPGQSPQLLIYKVSNRFSGVPDRFSGSGSGTDFTLKISRVEAEDVGVYYCSQNTHVPPTFGQGTKVEIERTVAAPSVFIFPPSDEQLKSGTASVVCLLNNFYPREAKVQWKVDNALQSGNSQESVTEQDSKDSTYSLSSTLTLSKADYEKHKVYACEVTHQGLSSPVTKSFNRGEC | 102 % of control
GpH7-B3 variant P238_03V/GpL16-k0 (antibody, human IgG1, kappa, also called Ho Ab P238_03V) heavy: not shown light: DIVMTQSPLSLPVTPGEPASISCQASESLVHSNRNTYLHWYLQKPGQSPQLLIYKVSNRFSGVPDRFSGSGSGTDFTLKISRVEAEDVGVYYCSQNTHVPPTFGQGTKVEIERTVAAPSVFIFPPSDEQLKSGTASVVCLLNNFYPREAKVQWKVDNALQSGNSQESVTEQDSKDSTYSLSSTLTLSKADYEKHKVYACEVTHQGLSSPVTKSFNRGEC | 97.9 % of control
GpH7-B3 variant P271_16H/GpL16-k0 (antibody, human IgG1, kappa, also called Ho Ab P271_16H) heavy: not shown light: DIVMTQSPLSLPVTPGEPASISCQASESLVHSNRNTYLHWYLQKPGQSPQLLIYKVSNRFSGVPDRFSGSGSGTDFTLKISRVEAEDVGVYYCSQNTHVPPTFGQGTKVEIERTVAAPSVFIFPPSDEQLKSGTASVVCLLNNFYPREAKVQWKVDNALQSGNSQESVTEQDSKDSTYSLSSTLTLSKADYEKHKVYACEVTHQGLSSPVTKSFNRGEC | 99.4 % of control
GpH7-B3 variant P238_04F/GpL16-k0 (antibody, human IgG1, kappa, also called Ho Ab P238_04F) heavy: not shown light: DIVMTQSPLSLPVTPGEPASISCQASESLVHSNRNTYLHWYLQKPGQSPQLLIYKVSNRFSGVPDRFSGSGSGTDFTLKISRVEAEDVGVYYCSQNTHVPPTFGQGTKVEIERTVAAPSVFIFPPSDEQLKSGTASVVCLLNNFYPREAKVQWKVDNALQSGNSQESVTEQDSKDSTYSLSSTLTLSKADYEKHKVYACEVTHQGLSSPVTKSFNRGEC | 98.7 % of control
GpH7-B3 variant P238_08L/GpL16-k0 (antibody, human IgG1, kappa, also called Ho Ab P238_08L) heavy: not shown light: DIVMTQSPLSLPVTPGEPASISCQASESLVHSNRNTYLHWYLQKPGQSPQLLIYKVSNRFSGVPDRFSGSGSGTDFTLKISRVEAEDVGVYYCSQNTHVPPTFGQGTKVEIERTVAAPSVFIFPPSDEQLKSGTASVVCLLNNFYPREAKVQWKVDNALQSGNSQESVTEQDSKDSTYSLSSTLTLSKADYEKHKVYACEVTHQGLSSPVTKSFNRGEC | 100 % of control
GpH7-B3 variant Q295_15Y/GpL16-k0 (antibody, human IgG1, kappa, also called Ho Ab Q295_15Y) heavy: not shown light: DIVMTQSPLSLPVTPGEPASISCQASESLVHSNRNTYLHWYLQKPGQSPQLLIYKVSNRFSGVPDRFSGSGSGTDFTLKISRVEAEDVGVYYCSQNTHVPPTFGQGTKVEIERTVAAPSVFIFPPSDEQLKSGTASVVCLLNNFYPREAKVQWKVDNALQSGNSQESVTEQDSKDSTYSLSSTLTLSKADYEKHKVYACEVTHQGLSSPVTKSFNRGEC | 97 % of control
GpH7-B3 variant L328_14T/GpL16-k0 (antibody, human IgG1, kappa, also called Ho Ab L328_14T) heavy: not shown light: DIVMTQSPLSLPVTPGEPASISCQASESLVHSNRNTYLHWYLQKPGQSPQLLIYKVSNRFSGVPDRFSGSGSGTDFTLKISRVEAEDVGVYYCSQNTHVPPTFGQGTKVEIERTVAAPSVFIFPPSDEQLKSGTASVVCLLNNFYPREAKVQWKVDNALQSGNSQESVTEQDSKDSTYSLSSTLTLSKADYEKHKVYACEVTHQGLSSPVTKSFNRGEC | 98.6 % of control
GpH7-B3 variant P329_02A/GpL16-k0 (antibody, human IgG1, kappa, also called Ho Ab P329_02A) heavy: not shown light: DIVMTQSPLSLPVTPGEPASISCQASESLVHSNRNTYLHWYLQKPGQSPQLLIYKVSNRFSGVPDRFSGSGSGTDFTLKISRVEAEDVGVYYCSQNTHVPPTFGQGTKVEIERTVAAPSVFIFPPSDEQLKSGTASVVCLLNNFYPREAKVQWKVDNALQSGNSQESVTEQDSKDSTYSLSSTLTLSKADYEKHKVYACEVTHQGLSSPVTKSFNRGEC | 98.2 % of control
